Data taken from PMC11109965, “Correction of non-random mutational biases along a linear bacterial chromosome by the mismatch repair endonuclease NucS” (Nucleic Acids Research, 2024).

B1: NucS from Streptomyces ambofaciens (NucSSam), N-terminal His-tagged (enzyme, Streptomyces ambofaciens ATCC23877, UniProt A0ABN4PBG3 1-223, looked up)
chain: MRLVIARCSVDYAGRLTAHLPSAPRLILVKADGSVSIHADDRAYKPLNWMSPPCTLKEGTGEEEGVWTVVNKAGEKLIITMEEILHDSSHELGVDPGLIKDGVEAHLQELLADRIETLGEGYTLIRREYMTAIGPVDILCRDAEGRTVAVEIKRRGEIDGVEQLTRYLELLNRDPHLAPVRGVFAAQEIKPQARVLATDRGIGCQVLDYNAMRGIEDDKLRLF
notes: 223 amino acids; calculated molecular weight 24762.44 Da; Found as monomer and dimer in solution, the monomer prevailing; the monomeric fraction was used in the cleavage assays; also called EndoMS/NucS; His-tagged NucSSam; not shown: His-tag, N-terminal, kept
B2: β-clamp from Streptomyces ambofaciens (β-clampSam), N-terminal His-tagged (natural protein)
chain: MKIRVERDVLAEAVAWAARSLPARPPAPVLAGLLLKAEEGQLSLSSFDYEVSARVSVEAEVEEEGTVLVSGRLLADISRALPNRPVEISTDGVRATVVCGSSRFTLHTLPVEEYPALPQMPEATGTVPGEVFAAAVQQVAIAAGRDDTLPVLTGVRIEIEGDSVTLASTDRYRFAVREFLWKPENPEVSAVALVPAKTLQDTAKALTSGDQVILALAGSGAGEGLIGFEGAGRRTTTRLLEGDLPKYKTLFPTEFNSIAVIETAPFVEAVKRVALVAERNTPVRLSFEQGVLILEAGSSDDAQAVERVDAQLEGDDISIAFNPTFLLDGLSAIDSPVAQLSFTTSTKPALLSGKPAVDAEADEAYKYLIMPVRLSG

Key:
[1] = target: the molecule itself; assay: SEC-MALS; fractions of the main gel filtration peak of NucSSam; molecular weights determined on the right side of the peaks because peak homogeneity was moderate
[2] = target: the molecule itself; assay: SEC + SEC-MALS; purified His-tagged β-clampSam; gel filtration (single peak, about 97 kDa) and SEC-MALS (about 84 kDa)

Protein | stoichiometry N [1] | stoichiometry N [2]
B1 | 2 | –
B2 | – | 2
